Assay results reported in PMC4442525.

Assays:
Assay in all cases: pHLA tetramer staining of transfected HEK293T cells
[1] = biological target: HLA-B*57:01-LF9 A8 tetramer; settings: parent: est. 57; read off a plot
[2] = biological target: HLA-B*57:01-TW10 T3N tetramer; settings: read off a plot; for response: parent: est. 19, scale: relative to HLA-B*57:01-TW10 binding to KIR3DL1*001; for percent of parent (normalized to *001 (=100)): parent: est. 100
[3] = biological target: HLA-B*57:01-LF9 L8 tetramer; settings: parent: est. 58; read off a plot
[4] = biological target: HLA-B*57:01-TW10 tetramer; settings: parent: est. 100, read off a plot; for response: scale: relative to HLA-B*57:01-TW10 binding to KIR3DL1*001

Row | Substance | response [1] | response [2] | percent of parent (normalized to *001 (=100)) [2] | response [3] | percent of parent (normalized to *001 (=100)) [4] | response [4]
1 | FLAG-tagged KIR3DL1*001 (from UniProt P43629) G138W | 40 | 10 | 44 | 23 |  | 
2 | FLAG-tagged KIR3DL1*001 (from UniProt P43629) L166R | 9 | 8 | 36 | 5 | 48 | 48
3 | FLAG-tagged KIR3DL1*001 (from UniProt P43629) P163S | 45 | 9 | 41 |  | 97 | 97
4 | FLAG-tagged KIR3DL1*001 (from UniProt P43629) P199L | 70 |  |  |  | 190 | 190
